Among the data in article PMC2854692 are potency in the Ca2+-flux assay (FLIPR) on a transfected GcgR cell line, relative to unmodified glucagon, molar basis (% of the potency of unmodified glucagon) values, retold here.

The assay has as its target Glucagon receptor (UniProt P47871).
Chain of UniProt P47871 (P47871 26-477): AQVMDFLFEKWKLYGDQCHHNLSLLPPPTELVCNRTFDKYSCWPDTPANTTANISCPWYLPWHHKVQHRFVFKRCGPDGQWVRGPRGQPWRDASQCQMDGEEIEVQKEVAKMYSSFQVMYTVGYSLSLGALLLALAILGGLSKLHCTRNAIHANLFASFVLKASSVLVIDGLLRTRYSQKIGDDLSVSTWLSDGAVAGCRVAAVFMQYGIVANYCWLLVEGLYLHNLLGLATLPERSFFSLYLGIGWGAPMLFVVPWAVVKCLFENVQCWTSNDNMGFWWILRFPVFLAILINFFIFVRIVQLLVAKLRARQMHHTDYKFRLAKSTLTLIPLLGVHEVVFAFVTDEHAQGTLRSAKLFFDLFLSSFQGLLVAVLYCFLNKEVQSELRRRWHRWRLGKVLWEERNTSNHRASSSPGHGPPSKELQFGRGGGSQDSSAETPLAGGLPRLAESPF

B1: Gcg-XTEN (ligand)
chain: HSQGTFTSDYSKYLDSRRAQDFVQWLMNTGGTSTPESGSASPGTSPSGESSTAPGTSPSGESSTAPGSTSSTAESPGPGSTSESPSGTAPGSTSSTAESPGPGTSPSGESSTAPGTSTPESGSASPGSTSSTAESPGPGTSPSGESSTAPGTSPSGESSTAPGTSPSGESSTAPG
Molecule B1 registered a potency in the Ca2+-flux assay (FLIPR) on a transfected GcgR cell line, relative to unmodified glucagon, molar basis (% of the potency of unmodified glucagon) of 15.
